This assay concerns the target serum IgE of birch pollen allergic individuals. Description: ELISA inhibition, Bet v 1a immobilized, BM4 as inhibitor in serial dilutions. Background: An ELISA detects its analyte on a solid surface through an enzyme-linked reagent.

B1: BM4 (protein)
chain: GVFNYETETTSVIPAARLFKAFILDGDNLFPKVAPQAISSVENIEGNGGPGTIKKISFPEGFPFKYVKDRVDEVDHTNFKYNYSVIEGGPIGDTLEKISNEIKIVATPSGSTIKSISNKYHTKGDHEVKAEQVKASKEMGETLLRAVESYLLAHSDAYN
Consider B1, for which the fold reduced patients' IgE binding capacity compared to Bet v 1a lay in the range of 100 to 1000 fold.

The values above are taken from patent US20110217334A1.
